Measurements published in patent US20210063414A1, “METHODS FOR PREVENTING AND/OR TREATING BONE LOSS CONDITIONS BY MODULATING IRISIN” (Dana-Farber Cancer Institute, Inc., priority 2018, published 2021).

What was measured:
[1] = molecular target: T1, MLO-Y4 cell surface proteins (Mus musculus, UniProt Q791V5); test: Crosslinking/co-immunoprecipitation/mass spectrometry (TMT quantitative proteomics) to identify irisin receptors; assay type: binding; settings: co-precipitated protein Mteh2 (MTCH2_MOUSE)
T1 construct: endogenous in cells; host or cells: MLO-Y4
T1 sequence (Q791V5 1-303): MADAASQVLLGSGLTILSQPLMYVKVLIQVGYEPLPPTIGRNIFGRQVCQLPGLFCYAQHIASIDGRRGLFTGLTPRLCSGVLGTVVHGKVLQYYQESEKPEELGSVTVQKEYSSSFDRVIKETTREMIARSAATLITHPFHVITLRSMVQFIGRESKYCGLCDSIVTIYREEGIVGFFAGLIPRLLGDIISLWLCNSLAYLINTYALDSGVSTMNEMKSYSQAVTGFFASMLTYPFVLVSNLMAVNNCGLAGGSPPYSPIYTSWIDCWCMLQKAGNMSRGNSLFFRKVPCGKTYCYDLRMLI
Method in brief: (§1)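 Mouse MLO-Y4 cells were switched to serum-free FreeStyle medium for 4 h, chilled, then exposed to 10 nM His-tagged irisin (or adipsin as control) for 20 min. Cells were crosslinked with 1.5 mM DTSSP (30 min, ice), and bound proteins were pulled down on Ni-NTA and eluted with 250 mM imidazole. Eluates were separated by SDS-PAGE, trypsin-digested in gel, TMT 6-plex labelled and quantified by MS3-based LC-MS/MS on an Orbitrap Fusion Lumos.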

[2] = molecular target: T2, MLO-Y4 cell surface proteins (Mus musculus, UniProt Q66L42); test: as above; assay type: binding; settings: co-precipitated protein Map3k10 (M3K10_MOUSE)
T2 construct: endogenous in cells; host or cells: MLO-Y4
T2 sequence (Q66L42 whole entry): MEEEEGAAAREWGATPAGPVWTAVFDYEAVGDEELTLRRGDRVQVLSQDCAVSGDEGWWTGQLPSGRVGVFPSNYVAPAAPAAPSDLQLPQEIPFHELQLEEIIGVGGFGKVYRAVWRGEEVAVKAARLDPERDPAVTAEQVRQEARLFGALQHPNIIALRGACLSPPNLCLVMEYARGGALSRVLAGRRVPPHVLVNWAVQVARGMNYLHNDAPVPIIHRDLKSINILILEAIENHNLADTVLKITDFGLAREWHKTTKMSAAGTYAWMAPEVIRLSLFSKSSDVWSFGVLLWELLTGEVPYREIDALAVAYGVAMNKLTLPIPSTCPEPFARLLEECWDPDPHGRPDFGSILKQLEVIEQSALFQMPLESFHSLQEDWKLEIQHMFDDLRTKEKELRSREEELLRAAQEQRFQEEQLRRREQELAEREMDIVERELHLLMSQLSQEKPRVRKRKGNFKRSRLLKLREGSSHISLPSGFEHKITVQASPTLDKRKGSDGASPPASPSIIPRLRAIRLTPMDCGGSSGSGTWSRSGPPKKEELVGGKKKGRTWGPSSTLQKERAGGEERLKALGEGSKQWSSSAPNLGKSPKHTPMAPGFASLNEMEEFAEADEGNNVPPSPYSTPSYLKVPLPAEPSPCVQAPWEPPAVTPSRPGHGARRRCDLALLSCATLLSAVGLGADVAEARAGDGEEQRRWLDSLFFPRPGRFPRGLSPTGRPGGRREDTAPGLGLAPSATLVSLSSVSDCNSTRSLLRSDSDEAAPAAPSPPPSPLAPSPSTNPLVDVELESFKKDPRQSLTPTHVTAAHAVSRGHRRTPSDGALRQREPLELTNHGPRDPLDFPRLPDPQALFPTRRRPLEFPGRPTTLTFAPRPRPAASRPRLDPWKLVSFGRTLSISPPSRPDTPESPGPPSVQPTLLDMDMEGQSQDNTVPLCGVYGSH
Method in brief: as §1

B1: irisin: secreted cleaved form of FNDC5; recombinant human/mouse irisin with C-terminal his tag produced in HEK293 cells (protein)
chain: DSPSAPVNVTVRHLKANSAVVSWDVLEDEVVIGFAISQQKKDVRMLRFIQEVNTTTRSCALWDLEEDTEYIVHVQAISIQGQSPASEPVLFKTPREAEKMASKNKDEVTMKE
modifications: left off: small tags and cut ends
notes: secreted cleaved form of FNDC5; recombinant human/mouse irisin with C-terminal his tag produced in HEK293 cells
B1 was tested, and the TMT signal-to-noise ratio [1] was 5.766, the “irisin/adipsin TMT signal-to-noise ratio” value [1] was 0.057 and the TMT signal-to-noise ratio [2] was 3.455. The “irisin/adipsin TMT signal-to-noise ratio” value [2] was 0.032.
